# Experimental data published in the DeepSol protein solubility set.
# Experiment: soluble on expression in E. coli; label from the status in PepcDB or PDB records
row,Sequence,soluble on expression in E. coli
1,MSDVNAPAGLAALEARLQQDLAWLDLPAKPWVKPRTNAGQAVLDVAIIGGGMAGLALAAELRHLGVAAVIFDQSPAGFEGPWATTARMETLRSPKQLTGPALGLPALTFRAWYEAQFGADGWAALDKIPRLQWAEYLRWYRKALALDVRNEHRVSRVAPRTDGLVELDIMTPGQTRFMLARHVVLATGRDGLGGPWVPDFARQLPDHLWTHSAAGLQDDWFEGRRVAVIGGGASAMDSAATALEAGAQRVDLLIRRAELPRVNKGKGVGNPGMVHGYWRLPDIWKWRIRHYLNRQQVPPPRGSTLRVSRSGRARFLLDNPVLAVEANPAGGVWLQTSKARVEADFVVFATGFRTDFELRPEFAPFSSHIRVWQDRFEAPEGEADSELAVLPDLGNCFEFQEKTPGACPGLNHIHCFSYPAALSYGAVSGDIPAISEGSKRLAHALIGLLFNEDIALHFESMRSYAEPELLGDEWVASEPGTEELRPLEHHHHHH,not soluble
2,MGSDKIHHHHHHPLGSPEAGDISEERQAFLRLTAVYSVMKDFRYTWSMQCFGDVLSNDATYSGSSNDAQTFTLLENYQYQADHTEILNKYRYSYQCINKANLFIRDMEMADDALFSKYDKEQMIGEAKFIRAYTYFELVKTFGGVPCYTGVLDLDHERLGRASVEEIYSVIEQDLNDAVSVLPKKSEVANYESSYAGRITKGAAIAMQTRIYLYEKKYDEVKKAFEKFQNECGGEYSLVAPEDYTWQFSLDGEHCSSSILEVNMYNSSTQSSYNVNNGNRHVLMSMPRNMTIGFGCAQPTQALADAYDAEGDVIRKKTTLLSTEEAIEIETAAKGDVAPVTDDRTGWYNRKLYLAPGQREENRGNNQPTNLRLIRLAEVYLNYAEACYFSGDIANAQKYLNEVRSHVNLAPKNHTGSQLFEDIMNERHLEFGMEGFRFFDVVRVGWGEKVFNGTKKAEFGAKTPFSAGAEVLPIPQTEIDISDGLITN,not soluble
3,MGSDKIHHHHHHMAKRSIAYLDSVFDISYTFIDHHSPLNALFLHGWGSSKEIMQQAFQGCFLNYNHLYVDLPGFNQSPNDEKVLETKDYANIINLFLKSVGKKAHVVFGHSFGGKVAILCENERMVLLSSAGILEPKPLKVRCKILLAKIFKKLGLNLGFLRSKDAMGLNQAMYETFKKVISEDFSDHFKRCEKEVLLFWGKDDKATPLSSAQKMQTLLKRSVLFVLEGDHFFFLNQAKEIEKLVENYHHAKS,not soluble
4,MIDIIANIASILGFTMQMNDKFFAHGMNKEQADNEMLLLFLKQLSVKSKAIKEIHQKYHSLSNDFRLVAVFLTNPVIYEKIVTNRSRALRNALKESLQTPSARIAQTQLSAQLRPCFENLLVSIKDESHLSVEFSGINDCEMKAILRKILNAQKEIFQLHQQFCGIMKTIGSYPLGNWGDSEFDFIKTNQRVFISDFYSIIDYADIILMGYLDIYHCALNLK,not soluble
5,MELAKKTGATVIGSAEMADYLSSYHGVENVHGMNIGGKANFDFGSVKFVQAFHSSSFTHENGIPVYLGMPMGIVFEVEGKTIYHTGDTGLFSDMSLIAKRHPVDVCFVPIGDNFTMGIDDASYAINEFIKPKISVPIHYDTFPLIEQDPQQFKDAVNVGDVQILKPGESVQFLEHHHHHH,not soluble
6,MGSDKIHHHHHHMINQVYQLVAPRQFDVTYNNVDIYGNHVIVRPLYLSICAADQRYYTGRRDENVLRKKLPMSLVHEAVGEVVFDSKGVFEKGTKVVMVPNTPTEQHHIIAENYLASSYFRSSGYDGFMQDYVVMAHDRIVPLPNDIDLSTISYTELVSVSYHAIQRFERKSIPLKNSFGIWGDGNLGYITAILLRKLYPEAKIYVFGKTDYKLSHFSFVDDIFTVNQIPDDLKIDHAFECVGGKGSQVALQQIVEHISPEGSIALLGVSELPVEVNTRLVLEKGLTLIGSSRSGSKDFEQVVDLYRKYPDIVEKLALLKGHEINVCTMQDIVQAFEMDLSTSWGKTVLKWTI,not soluble
7,MGHHHHHHHHHHSSGHIDDDDKHMLEDPMATGDERFYAEHLMPTLQGLLDPESAHRLAVRFTSLGLLPRARFQDSDMLEVRVLGHKFRNPVGIAAGFDKHGEAVDGLYKMGFGFVEIGSVTPKPQEGNPRPRVFRLPEDQAVINRYGFNSHGLSVVEHRLRARQQKQAKLTEDGLPLGVNLGKNKTSVDAAEDYAEGVRVLGPLADYLVVNVSSPNTAGLRSLQGKAELRRLLTKVLQERDGLRRVHRPAVLVKIAPDLTSQDKEDIASVVKELGIDGLIVTNTTVSRPAGLQGALRSETGGLSGKPLRDLSTQTIREMYALTQGRVPIIGVGGVSSGQDALEKIRAGASLVQLYTALTFWGPPVVGKVKRELEALLKEQGFGGVTDAIGADHRR,soluble
8,MAGSPTCLTLIYILWQLTGSAASGPVKELVGSVGGAVTFPLKSKVKQVDSIVWTFNTTPLVTIQPEGGTIIVTQNRNRERVDFPDGGYSLKLSKLKKNDSGIYYVGIYSSSLQQPSTQEYVLHVYEHLSKPKVTMGLQSNKNGTCVTNLTCCMEHGEEDVIYTWKALGQAANESHNGSILPISWRWGESDMTFICVARNPVSRNFSSPILARKLCEGAADDPDGSGLNDIFEAQKIEWHHHHHHHH,soluble
9,MTNKEKPIKHLVIDTCAIIANRNLHALADHYYAPPQILDELRSSAARKLWNTLPFEVTLREPTQTALRAVIDASKTTGDFQSLSMVDIKMIALTYDLHRQYVAENDVAETTEDDEKKNIEDLSAKVEQVTVGENTEDTKEEEIEENEESEDSAVSEGSESSESSESFDEDGWITQDNIEETLKKLGAFEIEENMLVGCLTTDFALQNVLLAMNLSLVSLSGYRIRKLKSFVLRCRTCFSTTSVMTKEFCPACGHKTLHKCAVSVDEDGNQQLHINWNRMANRRGLVYTLANPKGGKHATNERLFEDQPMPHMRMAKIHMDPLADGPFSVHDVTSRSAMLGVRTINNRAKQNRNPNESKRGGRRK,not soluble
10,NFMLNQPHSVSESPGKTVTISCTRSSGNIDSNYVQWYQQRPGSAPITVIYEDNQRPSGVPDRFAGSIDRSSNSASLTISGLKTEDEADYYCQSYDARNVVFGGGTRLTVLG,soluble
11,MAHHHHHHMLVRSITKCVVPLIKATSYTSSYIVEHPPTPVRLTSMLPLHNKSMPTPLLDPERLQEISCGTGQPAQRGRRKPLVWKRRKPWFDHQWSLDLQRIKKGPETPHFPDGTPFTQIRSFQSFAGRSWKINAGRRRKIRLSLKRGRRKLL,not soluble
12,MGSDKIHHHHHHMNGQPLIQVSDFEGPLDLLLHLIKTNEMDIYDIRISTITSQYLTYLHQMQLVRLDVAGEYFVMAANLMAIKAKLLLPKPQSVVPVDEDEPADPREELVNQLLEYQRYKQAAQALKQRALERQQHFTRPAMAVPESVELTVAPGIKPVDLQTALVRLMQRATLAKPVTQSVHQEHFTIKRQMTTILQRLKGTTAPVAFEQLLVTHPVMEEVVTTFLAVLELARQRQVQLQQAGRLAPLQVNFLQMEGRFSTDVTSSTD,not soluble
13,TQLHATRQAIVEAGQAIKMDKNGVQKLPVLNIYNEQQKWQKHQLMVENLPLNQVLQELDRNYKGKIIFNDAALQHVRVNAVLPLDQTTESLKLLATVFPDLKIKQIMPFVVMVSLK,not soluble
14,MDENLRQLAESILTDLTQDAPIANTMLKAKVFASKKNDKDLLSWIEHELNGYEENLPKYRLLDAGVKVDIHRGFQEVLGYNYPMGMVKDEKVRERLLHLPIHGSISEVEELSTKSGEGTIHIDIPIEIWYHHMRHCINGDIQRAYQFATVASVKQIMVKIKSLLIDYFLKIDKGESLSFLSLIKKETPTMQIIAGIVNTGS,not soluble
15,MGSDKIHHHHHHMTPNIYQQLGLKKVINACGKMTILGVSSVAPEVMQATARAASAFVEIDALVEKTGELVSRYTGAEDSYITSCASAGIAIAVAAAITHGDRARVALMPDSSGMANEVVMLRGHNVDYGAPVTSAIRLGGGRIVEVGSSNLATRWQLESAINEKTAALLYVKSHHCVQKGMLSIDDFVQVAQANHLPLIVDAAAEEDLRGWVASGADMVIYSGAKAFNAPTSGFITGRKTWIAACKAQHQGIARAMKIGKENMVGLVYALENYHQGQTTVTAAQLQPVAEAISAIHGLYADIEQDEAGRAIWRIRVRVNASELGLNAQDVEAQLRGGEIAIYARKYQLHQGVFSLDPRTVAEGEMALIVARLREIAEHAAD,not soluble
16,MKHITIIGAGLAGTLCGLYLARRGYEVELFESRPDIRNSPTDYGRSINLALSCRGITALKAMNLLSEVNKIMVPMRARAIHEANGEVHYQPFGRYIDEYINAISRSDLNALLLNKAELCPNIKLHFNMKLHSLDIHNKKIKFENKNGDFVEASYHRLIGADGAPSHVRDMLKNEGIVSASRDFLSHGYKELSISKKHTKGMAREHLHLWPRDSFMLLGNPNPDDSITGSLFLANEGKDSFAELNNEEKLHLFFKTQFPDAYAAMPNLVQEFFGNPTGHLSTIQCSPWYYKDECLLIGDAAHGIIPFFGQGMNSAFEDCRILDELLDEYQDDWSRVNPLFYEQRKVNTDAIAKMSMDNYHEIHSDIRNPKFILQKQIERELMLRYPEHYVSMHVLVMFTNTPYAKAMAIGELQSGLLEQICFPITDIKELNWQEVEKLLGIYDKKLAKIILEHHHHHH,soluble
17,KSVVIGKDALIGWHGGANQSDEMWDQSVPSQYEKQFYRYLTRLRIKEAEFYNKVGVDPNITVYGHTRTNTCQRSTLANGWYYTESDMRHMGIKNLTVQGELLNTLNYNNSEINSCLMPQIFN,not soluble
18,MGSDKIHHHHHHMTTDYRLTSDADREAFYQLYQYAFNNHDTPARRRFFMDRYQHGWIYGRHDHGQLVSGLYSLPLAVNFHGVTYRMNGIGDVMSAPEYAGQGGAGQLLTTALTEMAANHVTLSYLAPFAYGYYRRFGYEHVFNHAHQVMAAPDLPRVKPTDWSGTITRYGNDGLAQINDFYARQPQNQCGGLIRPAWWQHYLTLKHHWSVAIYRNAAANIEGYLIYERQATNFAIQEWVTSTPTAFERLANFITKHGTTFETFSYDSPSATNGLDLLADPYRLKVTVQPYMMARIVDLYDFIKRYPFLTDIQPIRLAVSDATLPANQGIWSLTRHNGQVTLNRVSDQLTGPADIQLTIQQLTTACFGTQSLARAYQHGLITGDVNAINRLDTSLVKERPALIDYF,not soluble
19,MKTSDIHDVAIVGAGPAGLSAAYELIRTGFTPLVLERTPAVGDVWRNHYDGLRLNSGRFFSALPGSKFPLSAGGWPSRDEVVSLLETFPARGGFTVQTGIEVEKVSHDRERDIWLITSNDNRQFESRAVVIAAGANRIPIIPEWEGKNTFTGTIIHSSQFKSAQDYAGKHVLVVGSGNSAAEIASRLAKYADSVTMSVRTPPQILPKSIYGIPLIGIGVWTRYLPRALVDGLLNFLRRTMIGDLSVYGLPSPTISMSKQYAINNVVPILYGPFIDDVRSGRIKIVGPVQKISGGTVEVLSTVESALNGDQATTTLQPDIIVAGTGFRTGFPELIQVPGITDEKGRSKISGDQEFKGAPRLYFIGQINPLSGQLREIRLEAGRIARKLDKQLRAKLEHHHHHH,soluble
20,AKIYDKNGELVKTLDNGQRHEHVNIKDVPKDMKNAVLATEDNRFYQHGALDYKRLFGAIGKNLTGGFGSQGASTLTQQVVKDSFLTQQKSIGRKAQEAYLSYRLEQEYSKDEIFQVYMNKIYYSDGVTGIKAAAKYYFNKDMKDLNLAEEAYLAGLPQVPNLYNIYNNP,not soluble
